Measured values: paper PMC10457330

Columns and labels:
[1] = biological target: P23H bovine opsin (bovine) (UniProt P02699)
[2] = biological target: photoactivated bovine rhodopsin (bovine) (UniProt P02699)
[3] = biological target: photoactivated bovine rhodopsin (bovine) (UniProt P02699); remark: listed apart in the source

- opsin level by western blot (1D4) in HEK293S cells co-expressing Nb2 intracellularly, against the non-binding Nb16 control [1]: 2 fold
- intrinsic Trp fluorescence at 330 nm after illumination (Meta II decay, release of retinal) [2]: 3 fold
- UV-Vis decay of A478 nm after addition of 5 mM hydroxylamine, plateau against bRho* alone [3]: 4 times
B1: Nb2 (llama nanobody against bovine rhodopsin) (VHH)
VHH: QVQLVESGGGLVQPGGSLRLSCAASGFTFSKYAMNWVRQPPGKGLEWVSGIRPSGDNPTYADSVEGRFTIIRDNDKKMVYLQMTSLKTEDTAVYYCTRGYGTMTIEGQGTQVTVSS
